Experimental data: patent publication US20210292381A1

Target: purified MHC
Assay: competition with radiolabeled known MHC binding peptide for purified MHC

Row | Binder | IC50 [µM]
1 | LQLQPFWQPKLPGPQ [P1g (modified gluten peptide …)] | 11.2
2 | LQLQPFDQPRLPWPQ [P1f (modified gluten peptide …)] | 5.44
3 | PYPHPRLPYTQPQPF [P3c (modified gluten peptide …)] | 2.99
4 | KLPYPQGRLPGPQPQ [P2g (modified gluten peptide …)] | 3.75

These reach a lower IC50. Values come first.

Row | IC50 [µM] | Binder
5 | 1.99 | PYSQPESPYMQPQPF [P3d (modified gluten peptide …)]
6 | 0.879 | PYPHPWLRGPQPQPF [P3f (modified gluten peptide …)]
